Target: CgYps1 (C. glabrata (endogenous in derivatives of strain BG2))
Assay: co-IP; precleared lysates (6 mg) incubated with anti-CgYps1 antibody-conjugated beads for 12 h at 4°C; blots with anti-CgYps1 and anti-CgPst2; cells untreated or treated with menadione (90 μM for 90 min)

CgPst2 (from UniProt Q6FM13 1-198) (natural protein)
amount of CgPst2 co-precipitated in MD-treated against untreated cells: 40 % lower

Reference: publication PMC7943015
